T1: peptide hCCR9 (10–30) (Homo sapiens (Human)., UniProt P51686-1)
T1 construct: human CCR9 isoform A, residues 10-30; source: synthetic peptide
T1 chain: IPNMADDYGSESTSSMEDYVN

T2: peptide hCCR9 (13–30), corresponding to the N-terminus of the B isoform (Homo sapiens, UniProt P51686-1)
T2 construct: human CCR9, residues 13-30 on the numbering of isoform A (the B isoform starts in M13 of hCCR9-A); source: synthetic peptide
T2 chain: MADDYGSESTSSMEDYVN

T3: synthetic peptide hCCR9A aa 2–22 with an additional N-terminal cysteine (Homo sapiens (Human).)
T3 construct: additional cysteine residue at the N terminus; human CCR9 isoform A, residues 2-22; Amine-coupled to a CM5 chip for the kinetic SPR; also called hCCR9 (2–22); source: synthetic peptide
T3 chain: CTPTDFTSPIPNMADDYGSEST

T4: hCCR9(2–22) synthetic peptide (coat of the ELISA; competitor in SPR) (Homo sapiens, CCR9 isoform A, UniProt P51686)
T4 construct: human CCR9 isoform A, residues 2-22; May be the same peptide as m5; also called hCCR9 (aa 2–22) synthetic peptide; peptide hCCR9 (2–22); source: synthetic peptide
T4 chain: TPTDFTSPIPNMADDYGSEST


Columns and labels:
[1] = target: T1, peptide hCCR9 (10–30); assay: SPR; competition: biotin-K-hCCR9A(2–19) captured on a streptavidin (SA) chip; mAb at 10 nM preincubated 30 min with competitor peptide (0.01–1 µM; 1 µM in Figure 6C,D); HBS-EP pH 7.4; conditions: both partners purified
[2] = target: T2, peptide hCCR9 (13–30), corresponding to …; assay: as above; conditions: both partners purified
[3] = target: T3, synthetic peptide hCCR9A aa 2–22 with …; assay: SPR; Biacore 3000; Cys-hCCR9A(2–22) peptide amine-coupled at low density to a CM5 chip; mAb as analyte at 0.41 to 33 nM; HBS-EP pH 7.4, 25°C, 30 µl/min; bivalent analyte model; apparent; conditions: both partners purified
[4] = target: T4, hCCR9(2–22) synthetic peptide (coat of …); assay: ELISA; competitive ELISA: hCCR9(2–22) peptide coated at 1 µg/ml in PBS overnight at 4°C; biotin-labeled mAb mixed with unlabeled mAb (2 µg/ml in PBS–0.5% BSA), 1 h at room temperature; peroxidase-labeled streptavidin; conditions: both partners purified
[5] = target: T5, human chemokine receptor CCR9, A isoform, on stably transfected HEK-293 cells (Homo sapiens (Human)., UniProt P51686-1); assay: flow cytometry on cells; 2 x 10^5 cells blocked with 40 µg/ml rat IgG, incubated with the primary mAb 30 min at 4°C in PBS pH 7.4 with 0.5% BSA, 1% FBS, 0.1% sodium azide; revealed with FITC- or PE-goat F(ab')2 anti-mouse IgG; conditions: one partner purified
T5 construct: also called hCCR9-A; hCCR9-HEK-293; source: HEK-293, stably transfected (pCIneo-hCCR9), on cells

[6] = target: T6, endogenous CCR9 on MOLT-4 human T-ALL cells (Homo sapiens (Human)., UniProt P51686); assay: as above; conditions: one partner purified
T6 construct: human CCR9 as expressed by MOLT-4 cells; also called CCR9^+ MOLT-4 cells; source: endogenous, on MOLT-4 cells
T6 sequence (P51686 whole entry): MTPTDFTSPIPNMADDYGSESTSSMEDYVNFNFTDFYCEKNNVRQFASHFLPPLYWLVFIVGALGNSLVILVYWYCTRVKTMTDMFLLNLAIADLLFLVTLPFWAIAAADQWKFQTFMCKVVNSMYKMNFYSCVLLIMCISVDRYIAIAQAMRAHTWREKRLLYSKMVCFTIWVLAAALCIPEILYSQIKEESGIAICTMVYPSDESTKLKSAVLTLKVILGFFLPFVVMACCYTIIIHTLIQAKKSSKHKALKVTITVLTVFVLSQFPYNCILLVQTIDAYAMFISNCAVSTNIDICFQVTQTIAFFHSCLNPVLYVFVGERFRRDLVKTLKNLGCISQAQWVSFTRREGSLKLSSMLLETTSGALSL

T5 sequence (P51686 whole entry, canonical isoform): as the sequence (P51686 whole entry) above

| binding result [1] | binding result [2] | Kd [3] [nM] | binding result [4] | binding result [5] | binding result [6] | Binder |
| --- | --- | --- | --- | --- | --- | --- |
| binds | no binding (tested: 1 µM) | 8.9 | binds | binds | binds | 92R, mouse anti-human CCR9 monoclonal antibody (IgG2a) (antibody, V domains shown, heavy chain variable region of 92R; mouse IgG2a heavy chain constant region (isotype as stated); light chain variable region of 92R; light chain constant region; IgG2a; also called 92R mAb; anti-hCCR9 92R; source: mouse hybridoma, mAb purified from culture supernatants) VH: EVKLEESGGGLVQPGGSMKLSCVASGFTFNKFWMNWVRQSPEKGLEWVAEIRLKSNNYATHYAESVKGRFTISRDDSKSSVYLQMNNLRAEDTGIYYCASDGWFAYWGQGTLVTVSA VL: DVVMTQTPLSLPVSLGDQASISCRSSQSLVHSNGNTYLNWCLQRPGQSPKSLIYKVSNRFSGVPDRFSGSGSGTDFTLKISRVEAEDLGVYFCSQSTHFPRTFGGGTKLEIK |
|  | no binding (tested: 1 µM) | 3.6 | binds |  | binds | 91R, mouse anti-human CCR9 monoclonal antibody (IgG2b) (antibody, V domains shown, heavy chain variable region of 91R; mouse IgG2b heavy chain constant region (isotype as stated); light chain variable region of 91R; light chain constant region; IgG2b; also called 91R mAb; anti-hCCR9 91R; source: mouse hybridoma, mAb purified from culture supernatants) VH: EVKLEDSGGGLVQPGRSMKLSCVASGFTFSNFWMNWVRQSPEKGLEWVAEIRLKSNNYATHYAESVKGRFTISRDDSKSSVYLQMNNLRTEDTGIYYCTSDGWFAYWGQGTLVTVSA VL: DVVMTQTPLSLPVSLGDQTSISCRSSQSLLHSNGNTYVQWYLRKPGQSPKLLIYKVSNRFPGVPDRFSGSGSGTDFTFKISRVEAEDLGVYFCAQSTHVPRTFGGGTKLEIK |

Reference: publication PMC5797297, “92R Monoclonal Antibody Inhibits Human CCR9^+ Leukemia Cells Growth in NSG Mice Xenografts” (Frontiers in Immunology, 2018)
